Key:
[1] = biological target: T1, Cynomolgus CD3 on Cyno CD3+ Jurkat cells (cynomolgus, UniProt Q95LI5 22-198); assay: cell binding cCD3, fold over background
T1 construct: whole, on cells; CD3 on cells; also called cCD3

[2] = biological target: Human CD3εδ-Fc (human) (UniProt P04234); assay: KD of scFv-Fc or IgG on human CD3εδ-Fc; instrument not given
[3] = biological target: T2, Human CD3 on Human CD3+ Jurkat cells (human, UniProt P07766 23-207); assay: cell binding hCD3, fold over background
T2 construct: whole, on cells; CD3 complex on cells; also called hCD3
T2 sequence (P07766 23-207): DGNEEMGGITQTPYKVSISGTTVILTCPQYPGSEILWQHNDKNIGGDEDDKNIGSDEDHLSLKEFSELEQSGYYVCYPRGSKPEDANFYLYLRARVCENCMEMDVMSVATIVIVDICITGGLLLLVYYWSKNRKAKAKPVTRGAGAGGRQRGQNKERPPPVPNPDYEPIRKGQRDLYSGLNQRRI

Chain of Human CD3εδ-Fc (human) (chain, as listed by the source mutant, chain 1 of 2): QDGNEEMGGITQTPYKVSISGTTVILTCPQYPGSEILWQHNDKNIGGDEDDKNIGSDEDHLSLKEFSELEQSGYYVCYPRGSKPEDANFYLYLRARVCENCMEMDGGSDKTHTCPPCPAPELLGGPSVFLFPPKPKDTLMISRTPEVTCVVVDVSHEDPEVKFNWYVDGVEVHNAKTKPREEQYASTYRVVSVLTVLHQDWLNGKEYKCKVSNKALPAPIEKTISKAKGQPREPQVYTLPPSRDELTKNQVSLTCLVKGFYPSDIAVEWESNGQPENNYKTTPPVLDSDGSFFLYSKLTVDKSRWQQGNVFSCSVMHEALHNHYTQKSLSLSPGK
Chain of Human CD3εδ-Fc (human) (P04234 22-105, stated change not applied, chain 2 of 2): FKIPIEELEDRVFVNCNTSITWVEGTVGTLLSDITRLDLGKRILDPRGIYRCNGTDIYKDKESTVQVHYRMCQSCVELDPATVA
T1 sequence (Q95LI5 22-198): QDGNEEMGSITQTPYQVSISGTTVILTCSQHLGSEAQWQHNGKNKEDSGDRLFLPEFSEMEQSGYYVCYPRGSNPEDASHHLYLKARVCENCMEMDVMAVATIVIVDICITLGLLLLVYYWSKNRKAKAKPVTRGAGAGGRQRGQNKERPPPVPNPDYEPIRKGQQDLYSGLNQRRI

Row | Binder | Cell Binding cCD3 (FOB) [1] [FOB] | Kd [2] [nM] | Cell Binding hCD3 (FOB) [3] [FOB]
1 | ADI-46356 (antibody, V domains shown) VH: QVQLVQSGAEVKKPGASVKVSCKASGFNIKDYYMHWVRQAPGQRLEWIGWIDLENANTVYDAKFQGRVTITRDTSASTAYMELSSLRSEDTAVYYCARDAYGRYFYDVWGQGTLVTVSS VL: DIVMTQSPDSLAVSLGERATINCKSSQSLLNARTGKNYLAWYQQKPGQPPKLLIYWASTRESGVPDRFSGSGSGTDFTLTISSLQAEDVAVYYCVQSYFRRTFGGGTKVEIK | 59 | 0.98 | 39
2 | ADI-46363 (antibody, V domains shown, also called Ab47) VH: QVQLVQSGAEVKKPGASVKVSCKASGFNIKDYYMHWVRQAPGQRLEWIGWIDLENANTVYDAKFQGRVTITRDTSASTAYMELSSLRSEDTAVYYCARDAYGRYFYDVWGQGTLVTVSS VL: DIVMTQSPDSLAVSLGERATINCKSSQSLLNARTGKNYLAWYQQKPGQPPKLLIYWASTRESGVPDRFSGSGSGTDFTLTISSLQAEDVAVYYCTQSYFRRTFGGGTKVEIK | 129 | 0.93 | 49
3 | ADI-46370 (antibody, V domains shown, also called Ab34) VH: QVQLVQSGAEVKKPGASVKVSCKASGFNIKDYYMHWVRQAPGQRLEWIGWIDLENANTVYDHKFQGRVTITRDTSASTAYMELSSLRSEDTAVYYCARDAYGRYFYDVWGQGTLVTVSS VL: DIVMTQSPDSLAVSLGERATINCKSSQSLLNARTGKNYLAWYQQKPGQPPKLLIYWASTRESGVPDRFSGSGSGTDFTLTISSLQAEDVAVYYCVQSYFRRTFGGGTKVEIK | 46 | 1 | 40
4 | ADI-46365 (antibody, V domains shown, also called Ab49) VH: QVQLVQSGAEVKKPGASVKVSCKASGFNIKDYYMHWVRQAPGQRLEWIGWIDLENANTVYDAKFQGRVTITRDTSAGTAHMELSSLRSEDTAVYYCARDAYGRYFYDVWGQGTPVTVSS VL: DIVMTQSPDSLAVSLGERATINCKSSQSLLNARTGKNYLAWYQQKPGQPPKLLIYWASTRESGVPDRFSGSGSGTDFTLTISSLQAEDVAVYYCTQSYFRRTFGGGTKVEIK | 84 | 1 | 36
5 | ADI-46372 (antibody, V domains shown, also called Ab36) VH: QVQLVQSGAEVKKPGASVKVSCKASGFNIKDYYMHWVRQAPGQRLEWIGWIDLENANTVYDAKFQGRVTITRDTSAGTAHMELSSLRSEDTAVYYCARDAYGRYFYDVWGQGTPVTVSS VL: DIVMTQSPDSLAVSLGERATINCKSSQSLLNARTGKNYLAWYQQKPGQPPKLLIYWASTRESGVPDRFSGSGSGTDFTLTISSLQAEDVAVYYCVQSYFRRTFGGGTKVEIK | 80 | 1.1 | 14
6 | ADI-46361 (antibody, V domains shown, also called Ab45) VH: QVQLVQSGAEVKKPGASVKVSCKASGFNNKDYYMHWVRQAPGQRLEWIGWIDLENANTVYDAKFQGRVTITRDTSASTAYMELSSLRSEDTAVYYCARDAYGRYFYDVWGQGTLVTVSS VL: DIVMTQSPDSLAVSLGERATINCKSSQSLLNARTGKNYLAWYQQKPGQPPKLLIYWASTRESGVPDRFSGSGSGTDFTLTISSLQAEDVAVYYCTQSYFRRTFGGGTKVEIK | 84 | 0.93 | 23
7 | ADI-46376 (antibody, V domains shown, also called Ab39) VH: QVQLVQSGAEVKKPGASVKVSCKASGFNIKDYYMHWVRQAPGQRLEWIGWIDLENANTVYDAKLQGRVTITRDTSASTAYMELSSLGSEDTAVYYCARDAYGRYFYDVWGQGTPVTVSS VL: DIVMTQSPDSLAVSLGERATINCKSSQSLLNARTGKNYLAWYQQKPGQPPKLLIYWASTRESGVPDRFSGSGSGTDFTLTISSLQAEDVAVYYCTQSYFRRTFGGGTKVEIK | 96 | 1 | 4
8 | ADI-46364 (antibody, V domains shown, also called Ab48) VH: QVQLVQSGAEVKKPGASVKVSCKASGFNIKDYYMHWVRQAPGQRLEWIGWIDLENANTVYDAKLQGRVTITRDTSASTAYMELSSLGSEDTAVYYCARDAYGRYFYDVWGQGTLVTVSS VL: DIVMTQSPDSLAVSLGERATINCKSSQSLLNARTGKNYLAWYQQKPGQPPKLLIYWASTRESGVPDRFSGSGSGTDFTLTISSLQAEDVAVYYCVQSYFRRTFGGGTKVEIK | 63 | 0.97 | 33
9 | ADI-46375 (antibody, V domains shown, also called Ab38) VH: QVQLVQSGAEVKKPGASVKVSCKASGFNIKDYYMHWVRQAPGQRLEWIGWIDLENANTVYDAKFQGRVTITRDTSASTAYMELSSLRSEDTAVYYCARDAYGRYFYDVWGQGTLVTVSS VL: DIVMTQSPDSLAVSLGERATINCKSSQSLLNARTRKNYLAWYQQKPGQPPKLLIYWASTRESGVPDRFSGSGSGTDFTLTISSLQAEDVAVYYCTQSYFRRTFGGGTKVEIK | 40 | 0.86 | 48
10 | ADI-46381 (antibody, V domains shown, also called Ab43) VH: QVQLVQSGAEVKKPGASVKVSCKASGFNIKDYYMHWVRQAPGQRLEWIGWIDLENANTVYDTKFQGRVTITRDTSASTAYMELSSLRSEDTAVYYCARDAYGRYFYDVWGQGTLVTVSS VL: DIVMTQSPDSLAVSLGERATINCKTSQGLLNARTNKNYLAWYQQKPGQPPKLLIYWASTRESGVPDRFSGSGSGTDFTLTISSLQAEDVAVYYCVQSYFRRTFGGGTKVEIK | 174 | 0.72 | 71

More lines, in order of falling Kd [2], values ahead:

Row | Cell Binding cCD3 (FOB) [1] [FOB] | Kd [2] [nM] | Cell Binding hCD3 (FOB) [3] [FOB] | Binder
11 | 105 | 1 | 43 | ADI-46379 (antibody, V domains shown, also called Ab41) VH: QVQLVQSGAEVKKPGASVKVSCKASGFNIKDYYMHWVRQAPGQRLEWIGWIDLENANTVYDAKFQGRVTITRDTSASAAYMELSSLRSEDTAVYYCARDAYGRYFYDVWGQGTLVTVSS VL: DIVMTQSPDSLAVSLGERATINCKSSQSLLNARTGKNYLAWYQQKPGQPPKLLIYWASARESGVPDRFSGSGSGTDFTLTISSLQAEDVAVYYCTQSYFRRTFGGGTKVEIK
12 | 82 | 0.99 | 35 | ADI-46358 (antibody, V domains shown, also called Ab31) VH: QVQLVQSGAEVKKPGASVKVSCKASGFNIKDYYMHWVRQAPGQRLEWIGWIDLENANTVYDAKFQGRVTITRDTSASTAYMELSNLRSEDTAVYYCARDAYGRYFYDVWGQGTLVTVSS VL: DIVMTQSPDSLAVSLGERATINCKSSQSLLNARTGKNYLAWYQQKPGQPPKLLIYWASTRESGVPDRFSGSGSGTDFTLTISSLQAEDVAVYYCTQSYFRRTFGGGTKVEIK
13 | 106 | 0.97 | 40 | ADI-46360 (antibody, V domains shown, also called Ab44) VH: QVQLVQSGAEVKKPGASVKVSCKASGFNIKDYYMHWVRQAPGQRPEWIGWIDLENANTVYDAKFQGRVTITRDTSASTAYMELSSLRSEDAAAYYCARDAYGRYFYDVWGQGTLVTVSS VL: DIVMTQSPDSLAVSLGERATINCKSSQSLLNARTGKNYLAWYQQKPGQPPELLIYWASTRESGVPDRFSGSGSGTDFTLTISSLQAEDVAVYYCTQSYFRRTFGGGTKVEIK
14 | 62 | 0.95 | 8 | ADI-46367 (antibody, V domains shown, also called Ab32) VH: QVQLVQSGAEVKKPGASVKVSCKASGFNIKDYYMHWVRQAPGQRLEWIGWIDLENANTVYDAKFQGRVTITRDTSASIAYMELSSLRSEDTAVYYCARDAYGRYFYDVWGQGTLVTVSS VL: DIVMTQSPDSLAVSLGERATINCKSSQSLLNARTGKNYLAWYQQKPGQPPKLLIYWASTRESGVPDRFSGSGSGTDFTLTISSLQAEDVAVYYCAQSYFRRTFGGGTKVEIK
15 | 71 | 0.92 | 33 | ADI-46369 (antibody, V domains shown, also called Ab33) VH: QAQLVQSGAEVKKPGASVKVSCKASGFNIKDYYMHWVRQAPGQRLEWIGWIDLENANTVYDTKFQGRVTITRDTSASTAYMELSSLRSEDTAVYYCARDAYGRYFYDVWGQGTLVTVSS VL: DIVMTQSPDSLAVSLGERATINCKSSQSLLNARTGKNYLAWYQQKPGQPPKLLIYWASTRESGVPDRFSGSGSGTDFTLTISSLQAEDVAVYYCVQSYFRRTFGGGTKVEIK
16 | 121 | 0.86 | 47 | ADI-46371 (antibody, V domains shown, also called Ab35) VH: QAQLVQSGAEVKKPGASVKVSCKASGFNIKDYYMHWVRQAPGQRPEWIGWIDLENANTVYDAKFQGRVTITRDTSASTAYMELSSLRSEDTAAYYCARDAYGRYFYDVWGQGTLVTVSS VL: DIVMTQSPDSLAVSLGERATINCKSSQSLLNARTGKNYLAWYQQKPGQPPKLLIYWASTRESGVPDRFSGSGSGTDFTLTISSLQAEDVAVYYCVQSYFRRTFGGGTKVEIK
17 | 29 | 0.84 | 37 | ADI-46374 (antibody, V domains shown, also called Ab37) VH: QVQLVQSGAEVKKPGASVKVSCKASGFNIKDYYMHWVRQAPGQRLEWIGWIDLNNANTVYDAKFQGRVTITRDTSASTAYMELSSLRSEDTAVYYCARDAYGRYFYDVWGQGTLVTVSS VL: DIVMTQSPDSLAVSLGERATINCKSSQSLLNARTGKNYLAWYQQKPGQPPKLLIYWASTRESGVPDRFSGSGSGTDFTLTISSLQAEDVAVYYCVQSYFRRTFGGGTKVEIK
18 | 95 | 0.8 | 7 | ADI-46362 (antibody, V domains shown, also called Ab46) VH: QVQLVQSGAEVKKPGASVKVSCKASGFNIKDYYMHWVRQAPGQRPEWIGWIDLENANTVYDAKFQGRVTITRDTSASTAYMELSSLRSEDTAAYYCARDAYGRYFYDVWGQGTLVTVSS VL: DIVMTQSPDSLAVSLGERATINCKSSQSLLNARTGKNYLAWYQQKPGQPPKLLIYWASTRESGVPDRFSGSGSGTDFTLTISSLQAEDVAVYYCVQSYFRRTFGGGTKVEIK

From patent US20260209352A1 (Adimab, published 2026)
